The results in this text go back to publication PMC11389850.

The target of this assay is BbmrR (Brevibacillus borstelensis). The experiment in a line: SEC; analytical size-exclusion chromatography, Superdex 200 10/300, 50 mM phosphate buffer, 500 mM NaCl, pH 7.5, 100 uL sample injected; column calibrated with LMW/HMW gel-filtration kits.

As to BbmrR (natural protein), the stoichiometry N was 2.
